Laboratory results: the supplement of paper PMC10567573

B1: MMP1 (parent)
chain: YTPDLPRADVDHAIEKAFQLWSNV

Variants of: B1
Test: protein stability index of a GFP-peptide fusion (GPS, HEK-293T) (PSI 1-6); higher = more stable
Conditions: c terminus: a fixed tail appended
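Note: lentivirally expressed fusions sorted by FACS into six bins by GFP to DsRed ratio, PSI derived from sequencing read proportions per bin multiplied by bin number.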

Protein stability index of substitutions, site by site:
D9: C 1.75, R 1.16, Y 2.35, L 1.3, I 1.78, P 1.54, K 2.44, A 1.38, Q 2.5, H 2.51, V 2.62, T 1.82, N 1.59, W 1.51, G 2.49, E 1.75, M 2.31, S 2.55, F 1.57
A13: T 3, K 2.1, G 3.15, V 2.79, S 1.89, P 1.58, H 2.27, R 2.08, I 2.27, N 2.11, W 2.06, M 2.61, L 1.63, F 1.79, C 1.93, Q 2.03, Y 1.95, E 2.19, D 1.71
A8: L 2.03, Y 1.93, V 1.64, R 1.67, P 1.51, E 2.67, F 2.94, G 2.83, W 1.87, H 1.75, M 1.74, T 1.79, S 1.68, N 1.41, D 1.53, Q 1.57, K 2.58, I 1.88
K16: R 1.8, H 2.06, Q 1.76, T 2.03, G 1.19, L 1.52, A 2.07, N 1.52, I 2.71, F 1.52, D 1.71, E 1.76, P 1.83, S 2, M 1.54, C 2.02
V10: E 1.81, F 1.79, C 2.1, M 2.56, W 3.04, R 2.55, S 1.88, D 2.16, L 1.27, Y 2.71, A 2.06, I 1.76, N 1.48, H 1.58, Q 1.81, G 1.96, K 2.44, P 1.49, T 1.91
I14: F 2.14, S 1.51, A 1.68, N 1.88, W 1.46, T 1.39, C 2.1, H 1.62, D 1.81, V 2.08, G 2.25, E 1.36, L 1.39, Q 2.3, Y 2.17, M 1.7, R 2.31, P 2.14, K 2.14
D11: A 2.08, C 2.17, P 3.09, V 1.59, R 2.69, W 1.73, G 3.41, T 2.62, N 1.63, F 2.12, Q 1.83, Y 1.7, K 2.21, S 1.96, I 1.94, L 1.96, H 2.07, M 2.12, E 1.4
E15: I 2.53, R 2.73, W 1.83, S 2.19, K 1.32, A 1.46, L 2.65, C 2.24, M 2.46, V 1.39, F 2.56, G 2.54, T 2.46, P 1.93, D 1.58, N 1.97, H 2.09, Q 1.46, Y 2.07
H12: T 1.82, N 1.92, D 2.09, W 2.21, V 1.95, G 2.03, C 1.62, S 1.58, Y 2, M 1.63, P 2.11, I 2, R 1.64, A 2.46, E 2.04, K 1.79, L 2.19, Q 1.69, F 1.7
